Laboratory results published in USRE46585 (LABORATOIRE FRANCAIS DU FRACTIONNEMENT ET DES …, dated 2017).

How the values were obtained:
[1] = target: T1, FcRn-p3 fusion protein (human, UniProt P55899 24-297; P61769 21-119); test: phage ELISA pH6
T1 construct: baculovirus expressed; coated on ELISA wells; not shown: amino terminal part of bacteriophage p3 protein and CVDE protein

[2] = target: T1, FcRn-p3 fusion protein; test: phage ELISA pH6 (est.)

T1 sequence (P55899 24-297, chain 1 of 2): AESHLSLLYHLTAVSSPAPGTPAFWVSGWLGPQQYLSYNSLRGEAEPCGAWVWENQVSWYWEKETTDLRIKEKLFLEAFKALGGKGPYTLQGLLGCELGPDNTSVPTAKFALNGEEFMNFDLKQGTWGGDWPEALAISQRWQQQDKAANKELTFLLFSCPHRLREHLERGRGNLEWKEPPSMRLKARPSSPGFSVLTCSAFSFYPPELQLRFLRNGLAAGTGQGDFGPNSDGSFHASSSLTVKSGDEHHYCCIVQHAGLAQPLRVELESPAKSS
T1 sequence (P61769 21-119, chain 2 of 2): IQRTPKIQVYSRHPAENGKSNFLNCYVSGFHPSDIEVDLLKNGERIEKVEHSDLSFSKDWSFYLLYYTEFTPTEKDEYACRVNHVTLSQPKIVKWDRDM

B1: C3A_01 (other)
chain: CPPCPAPELLGGPSVFLFPPKPKDTLMISRTPEVTCVVVDVSHEDPEVKFNWYVDGVEVHNAKTKPREEQYNSTYRVVSVLTVLHQDWLDGKEYKCKVSNKALPVPIEKTISKAKGQPREPQVYTLPPSRDELTKNQVSLTCLVKGFYPSDIAVEWESNGQPENNYKTTPPVLDSDGSFFLYSKLTVDKSRWQQGNVFSCSVMHEALHYHYTQKSLSLSPGK
notes: EU numbering
With B1 as the binder, how does the Ratio/Fc-H [1] read?
The Ratio/Fc-H was 2.5 fold.

What about the Ratio/FWT [2] of the same binder?
Its Ratio/FWT is 8 fold.

B2: C4A_01 (other)
chain: CPPCPAPELLGGPSVFLFPPKPKDTLMISRTPEVTCVVVDVSHEDPEVKFNWYVDGVEVHNAKTKPREEQYNSTYRVVSVLTVLHQDWLDGKEYKCKVSNKALPAPIEKTISKAKGQPREPQVYTLPPSRDELTKNRVSLTCLVKGFYPSDIAVEWESNGQPEKNYKTTPPVLDSDGSFFLYSKLTVDKSRWQQGNVFSCSVMHEALHYHYTQKSLSLSPGK
notes: EU numbering
What does the source list for B2?
Ratio/Fc-H [1]: 2.4 fold; Ratio/FWT [2]: 7.5 fold

B3: C3A_31 (other)
chain: CPPCPAPELLGGPSVFLFPPKPKDTLMISRTPEVTCVVVDVSHEDPEVKFNWYVDGVEVHNAKTKPREEQYNSTYRVVSVLTVLHQDWLDGKEYKCKVSNKALPVPIEKTISKAKGQPREPQVYTLPPSRDELTKNQVSLTCLVKGFYPSDIAVEWESNGQPEKNYKTTPPVLDSGGSFFLYSKLTVDKSRWQQGNVFSCSVMHEALHYHYTQKSLSLSPGK
notes: EU numbering
Which results are given for B3?
Ratio/Fc-H [1]: 2.2 fold; Ratio/FWT [2]: 6.9 fold

B4: C4A_36 (other)
chain: CPPCPAPELLGGPSVFLFPPKPKDTLMISRTPEVTCVVVDVSHEDPEVKFNWYVDGVEVHNAKTKPREEQYNSTYRVVSVLTVLHQDWLDGKEYTCKVSNKALPAPIEKTISKAKGQPREPQVYTLPPSRDELTKNQVSLTCLVKGFYPSDIAVEWESNGQPENNYKTTPPVLDSDGSFFLYSKLTVDKSRWQQGNVFSCSVMHEALHYHYTQKSLSLSPGK
notes: EU numbering
How did the Ratio/Fc-H [1] turn out when B4 was run?
The Ratio/Fc-H was 2.8 fold.

What about the Ratio/FWT [2] of the same binder?
The Ratio/FWT was 8.9 fold.

B5: C4A_18 (other)
chain: CPPCPAPELLGGPSVFLFPPKPKDTLMISRTPEVTCVVVDVSHEDPEVKFNWYVDGVEVHNAKTKPREEQYNSTYRVVSVLTVLHQDWLDGKEYKCKVSNKALPVPIEKTISKAKGQPREPQVYTLPPSRDELTKNQVSLTCLVKGFYPSDIVVEWESNGQPENNYKTTPPVLDSDGSFFLYSKLTVDKSRWQQGNVFSCSVMHEALHYHYTQKSLSLSPGK
notes: EU numbering
How did the Ratio/Fc-H [1] turn out when B5 was run?
The Ratio/Fc-H was 2.5 fold.

And the Ratio/FWT [2]?
The Ratio/FWT was 8.1 fold.

B6: C4A_32 (other)
chain: CPPCPAPELLGGPSVFLFPPKPKDTLMISRTPEVTCVVEDVSHEDPEVKFNWYVDGVEVHNAKTKPREEQYNSTYRVVSVLTVLHQDWLDGKEYKCKVSNKALPAPIEKTISKAKGQPREPQVYTLPPSRDELTKNQVSLTCLVKGFYPSDIVVEWESNGQPENNYKTTPPVLDSDGSFFLYSKLTVDKSRWQQGNVFSCSVMHEALHNHYTQKSLSLSPGK
notes: EU numbering
Which results are given for B6?
Ratio/Fc-H [1]: 1.7 fold; Ratio/FWT [2]: 5.4 fold

B7: C4A_24 (other)
chain: CPPCPAPELLGGPSVFLFPPKPKDTLMISRTPEVTCVVVDVSHEDPEVKFNWYVDGVEVHNAKTKPREEQYNSTYRVVSVLTVPHQDWLDGKEYKCKVSNKALPVPIEKTISKAKGQPREPQVYTLPPSRDELTKNQVSLTCLVKGFYPSDIAVEWESNGQPENNYKTTPPVLDSDGSFFLYSKLTVDKSRWQQGNVFSCSVMHEALHYHYTQKSLSLSPGK
notes: EU numbering
For B7, which Ratio/Fc-H [1] is on record?
Its Ratio/Fc-H is 2.3 fold.

And the Ratio/FWT [2]?
The Ratio/FWT was 7.5 fold.

B8: C3A_24 (other)
chain: CPPCPAPELLGGPSVFLFPPKPKDTLMISRTPEVTCVVVDVSHEDPEVKFNWYVDGVEVHNAKTKPREEQYNSTYRVVSVLPVLHQDWLNGKEYKCKVSNKALPAPIEKTISKAKGQPREPQVYTLPPSRDELTKNQVSLTCLVKGFYPSDIAVEWESNGQPETNYKTTPPVLDSGGSFFLYSKLTVDKSRWQQGTVFSCSVMHEALHYHYTQKSLSLSPGK
notes: EU numbering
Which results are given for B8?
Ratio/Fc-H [1]: 2.9 fold; Ratio/FWT [2]: 9.2 fold

B9: C3A_42 (other)
chain: CPPCPAPELLGGPSVFLFPPKPKDTLMISRTPEVTCVVVDVSHEDPEVKFNWYVDGVEVHNAKTKPREEQYNSTYRVVSVLTVLHQDWLDGKEYKCKVSNKALPVPIEKTISKAKGQPREPQVYTLPPSRDELTKNQVSLTCLVKGFYPSDIAVEWESNGQPEKNYKTTPPMLDSDGSFFLYSKLTVDKSRWQQGNVFSCSVMHEALHYHYTQKSLSLSPGK
notes: EU numbering
How did the Ratio/Fc-H [1] turn out when B9 was run?
The Ratio/Fc-H was 3.7 fold.

What about the Ratio/FWT [2] of the same binder?
The Ratio/FWT was 12 fold.

B10: C4A_28 (other)
chain: CPPCPAPELLGGPSVFLFPPKPKDTLMISRTPEVTCVVEDVSHEDPEVKFNWYVDGVEVHNAKTKPREEQYNSTYRVVSVLTVLHQDWLNGKEYKCKVSNKALPAPIEKTISKAKGQPREPQVYTLPPSRDELTKNQVSLTCLVKGFYPSDIVVEWESNGQPENNYKTTPPVLDSDGSFFLYSKLTVDKSRWQQGNVFSCSVMHEALHYHYTQKSLSLSPGK
notes: EU numbering
What does the source list for B10?
Ratio/Fc-H [1]: 3.4 fold; Ratio/FWT [2]: 10.8 fold

B11: C3A_08 (other)
chain: CPPCPAPELLGGPSVFLFPPKPKDTLMISRTPEVTCVVEDVSHEDPEVKFNWYVDGVEVHNAKTKPREEQYNSTYRVVSVLTVLHQDWLNGKEYKCKVSNKALPAPIEKTISKAKGQPREPQVYTLSPSRDELTKNQVSLTCLVKGFYPSDIVVEWESNGQPENNYKTTPPVLDSDGSFFLYSKLTVDKSRWQQGNVFSCSVMHEALHSHYTQKSLSLSPGK
notes: EU numbering
What does the source list for B11?
Ratio/Fc-H [1]: 3 fold; Ratio/FWT [2]: 9.7 fold

B12: C3A_21 (other)
chain: CPPCPAPELLGGPSVFLFPPKPKDTLMISRTPEVTCVVVDVSHEDPEVKFNWYVDGVEVHNAKTKPREEQYNSTYRVVSVLTVLHQDWLDGKEYKCKVSNKALPVPIEKTISKAKGQPREPQVYTLPPSRDELTKNQVSLTCLVKGFYPSDIAVEWESNGQPENNYKTTPPVLDPDGSFFLYSKLTVDKSRWQQGNVFSCSVMHEALHYHYTQKSLSLSPGK
notes: EU numbering
Which Ratio/Fc-H [1] does the source give for B12 here?
The Ratio/Fc-H was 3 fold.

And the Ratio/FWT [2]?
Its Ratio/FWT is 9.8 fold.

B13: C4A_06 (other)
chain: CPPCTAPELLGGPSVFLFPPKPKDTLMISRTPEVTCVVVDVSHEDPEVKFNWYVDGVEVHNAKTKPREEQYNSTYRVVSVLTVLHQDWLDGKEYKCKVSNKALPVPIEKTISKAKGQPREPQVYTLPPSRDELTKNQVSLTCLVKGFYPSDIAVEWESNGQPENNYKTTPPVLDSDGSFFLYSKLTVDKSRWQQGNVFSCSVMHEALHYHYTQKSLSLSPGK
notes: EU numbering
What does the source list for B13?
Ratio/Fc-H [1]: 3.6 fold; Ratio/FWT [2]: 11.4 fold

B14: C4A_29 (other)
chain: CPPCPAPELLGGPSVFLFPPKPKDTLMISRTPEVTCVVVDVSHEDPEVKFNWYVDGVEVHNAKTKPREEQYNSTYRVVSVLPVLHQDWLDGKEYKCKVSNKALPAPIEKTISKAKGQPREPQVYTLPPSRDELTKSRVSLTCLVKGFYPSDIAVEWESNGQPENNYKTTPPVLDSDGSFFLYSKLTVDKSRWQQGNVFSCSVMHEALHYHYTQKSLSLSPGK
notes: EU numbering
What does the source list for B14?
Ratio/Fc-H [1]: 3.8 fold; Ratio/FWT [2]: 12 fold

B15: C3A_43 (other)
chain: CPPCPAPELLGGPSVFLFPPKPKDTLMISRTPEVTCVVVDVSHEDPEVKFNWYVDGVEVHNAKTKPREEQYNSTYRVVSVLTVLHQDWLDGKEYKCKVSNKALPAPIEKTISKAKGQPREPQVYTLPPSRDELTKNQVSLTCLVKGFYPSDIAVEWESNGQPENNYKTTPPVLDSDGSFFLYSKLTVDKSGWQQGNVFSCSVMHEALHYHYTQKSLSLSPGK
notes: EU numbering
B15 was tested. Which Ratio/Fc-H [1] did it give?
Its Ratio/Fc-H is 2.5 fold.

What about the Ratio/FWT [2] of the same binder?
The Ratio/FWT was 8.1 fold.

B16: C3A_15 (other)
chain: CPPCPAPELLGGPSVFLFPPKPKDTLMISRTPEVTCVVEDVSHEDPEVKFNWYVDGVEVHNAKTKPREEQYNSTYRVVSVLAVLHQDWLNGKEYKCKVSNKALPAPIEKTISKAKGQPREPQVYTLPPSRDELTKNQVSLTCLVKGFYPSDIVVEWESNGQPENNYKTTPPVLDSDGSFFLYSKLTVDKSRWQQGNVFSCSVMHEALHNHYTQKSLSLSPGK
notes: EU numbering
Which results are given for B16?
Ratio/Fc-H [1]: 1.9 fold; Ratio/FWT [2]: 6 fold

B17: C4A_15 (other)
chain: CPPCPAPDLLGGPSVFLFPPKPKDTLMISRTPEVTCVVVDVSHEDPEVKFNWYVDGVEVHNAKTKPREEQYNSTYRVVSVLTVLHQDWLDGKEYKCKVSNKALPAPIEKTISKAKGQPREPQVYTLPPSRDELTKNQVSLTCLVKGFYPSDIAVEWESNGQPENNYKTTPPVLDSDGSFFLYSKLTVDKSRWQQGNVFSCSVMHEALHYHYTQKSLSLSPGK
notes: EU numbering
Which results are given for B17?
Ratio/Fc-H [1]: 2.2 fold; Ratio/FWT [2]: 6.9 fold

B18: C4A_27 (other)
chain: CPPCPAPELLGGPSVFLFPPKPKDTLMISRTPEVTCVVADVSHEDPEVKFNWYVDGVEVHNAKTKPREEQYNSAYRVVSVLTVLHQDWLNGKEYKCKVSNKALPAPIEKTISKAKGQPREPQVYTLPPSRDELTKNQVSLTCLVKGFYPSDIVVEWGSNGQPENNYKTTPPVLDSDGSFFLYSKLTVDKSRWQQGNVFSCSVMHEALHYHYTQKSLSLSPGK
notes: EU numbering
Which Ratio/Fc-H [1] does the source give for B18 here?
The Ratio/Fc-H was 2.7 fold.

What about the Ratio/FWT [2] of the same binder?
Its Ratio/FWT is 8.7 fold.

B19: C4A_25 (other)
chain: CPPCPAPELLGGPSVFLFPPKPKDTLMISRTPEVTCVVVDVSHEDPEVKFNWYVDGVEVHNAKTKPREEQYNSTYRVVSVLTVLHQDWLDGKEYKCKVSNKALPVPIEKTISKAKGQPREPQVYTLPPSRDELTKNQVSLTCLVKGFYPSDIAVEWESNGQPENNYKTTPPMLDSDGSFFLYSKLTVDKSRWQQGNVFSCSVMHEALHYHYTQKSLSLSPGK
notes: EU numbering
B19 was tested. Which Ratio/Fc-H [1] did it give?
The Ratio/Fc-H was 2.8 fold.

What about the Ratio/FWT [2] of the same binder?
The Ratio/FWT was 8.9 fold.

B20: C3A_07 (other)
chain: CPPCPAPELLGGPSVFLFPPKPKDTLMISRTPEVTCVVVDVSHEDPEVKFNWYVDGVEVHNAKTKPREEQYNSTYRVVSVLPVLHQDWLNGKEYKCKVSNKALPTPIEKTISKAKGQPREPQVYTLPPSRDELTKNQVSLTCLVKGFYPSDIVVEWESNGQPENNYKTTPPVLDSDGSFFLYSKLTVDKSRWQQGNVFSCSVMHEALHNHYTQKSLSLSPGK
notes: EU numbering
With B20 as the binder, how does the Ratio/Fc-H [1] read?
Its Ratio/Fc-H is 1.3 fold.

And the Ratio/FWT [2]?
The Ratio/FWT was 4.2 fold.

B21: C3A_39 (other)
chain: CPPCPVPELLGGPSVFLFPPKPKDTLMISRTPEVTCVVVDVSHEDPEVKFNWYVDGVEVHNAKTKPREEQYNSTYRVVSVLTVLHQDWLNGKEYKCKVSNKALPAPIEKTISKAKGEPREPQVYTLPPSRDELTKNQVSLTCLVKGFYPSDIAVEWESNGQPENNYKTTPPVLDSDGSFFLYSKLTVDKSRWQQGNVFSCSVMHEALHYHYTQKSLSLSPGK
notes: EU numbering
What does the source list for B21?
Ratio/Fc-H [1]: 1.8 fold; Ratio/FWT [2]: 5.6 fold
